Measurements taken from publication PMC7481795 (2020).

Molecular target: acid alpha-glucosidase (GAA phosphodiester) (Homo sapiens, UniProt P10253)
Experiment: SPR

B1: CI-MPR domains 1-5 1-726 (protein)
chain: MGAAAGRSPHLGPAPARRPQRSLLLLQLLLLVAAPGSTQAQAAPFPELCSYTWEAVDTKNNVLYKINICGSVDIVQCGPSSAVCMHDLKTRTYHSVGDSVLRSATRSLLEFNTTVSCDQQGTNHRVQSSIAFLCGKTLGTPEFVTATECVHYFEWRTTAACKKDIFKANKEVPCYVFDEELRKHDLNPLIKLSGAYLVDDSDPDTSLFINVCRDIDTLRDPGSQLRACPPGTAACLVRGHQAFDVGQPRDGLKLVRKDRLVLSYVREEAGKLDFCDGHSPAVTITFVCPSERREGTIPKLTAKSNCRYEIEWITEYACHRDYLESKTCSLSGEQQDVSIDLTPLAQSGGSSYISDGKEYLFYLNVCGETEIQFCNKKQAAVCQVKKSDTSQVKAAGRYHNQTLRYSDGDLTLIYFGGDECSSGFQRMSVINFECNKTAGNDGKGTPVFTGEVDCTYFFTWDTEYACVKEKEDLLCGATDGKKRYDLSALVRHAEPEQNWEAVDGSQTETEKKHFFINICHRVLQEGKARGCPEDAAVCAVDKNGSKNLGKFISSPMKEKGNIQLSYSDGDDCGHGKKIKTNITLVCKPGDLESAPVLRTSGEGGCFYEFEWHTAAACVLSKTEGENCTVFDSQAGFSFDLSPLTKKNGAYKVETKKYDFYINVCGPVSVSPCQPDSGACQVAKSDEKTWNLGLSNAKLSYYDGMIQLNYRGGTPYNNERHTPRATL
modifications: GAA N-glycans modified to contain only phosphodiesters
With B1 as the binder, how does the Kd read?
The Kd was roughly 60 nM.
